Source: publication doi:10.1101/2022.04.25.489347

Columns and labels:
[1] = target: AtFKBP43 (1-136) (Arabidopsis thaliana) (UniProt F4J9Q6); assay: pull-down
[2] = target: AtFKBP43 (1-164) (Arabidopsis thaliana) (UniProt F4J9Q6); assay: pull-down
Chain of AtFKBP43 (1-164) (Arabidopsis thaliana) (F4J9Q6 1-164): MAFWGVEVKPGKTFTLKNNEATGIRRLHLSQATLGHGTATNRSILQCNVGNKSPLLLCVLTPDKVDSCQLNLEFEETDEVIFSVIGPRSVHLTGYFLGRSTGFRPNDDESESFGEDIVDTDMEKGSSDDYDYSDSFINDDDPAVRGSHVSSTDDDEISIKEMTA

Chain of AtFKBP43 (1-136) (Arabidopsis thaliana) (F4J9Q6 1-136): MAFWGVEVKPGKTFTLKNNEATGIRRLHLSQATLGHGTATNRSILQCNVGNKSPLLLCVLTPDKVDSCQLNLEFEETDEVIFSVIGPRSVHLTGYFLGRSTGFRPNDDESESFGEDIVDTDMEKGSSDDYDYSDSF

NaCl concentration up to which the complex was stable [1] [M] | NaCl concentration up to which the complex was stable [2] [M] | Substance
1 | 1 | H3/H4 tetramer (from UniProt P84233 1-136; P62799 1-103) (complex)
0.3 | 0.3 | H2A/H2B dimer (from UniProt P06897 1-130; P02281 1-126) (complex)
